# In the supplement of paper PMC10567573:
# B1: ZNF232 (parent)
# chain: FPKSEQVYLHFLSVVTEDGPEPKD
# B2: SPRY1 (parent)
# chain: WIHRPGCRCKNSNTVYCKLESCPS
# Variants of: B1
# Experiment: protein stability index of a GFP-peptide fusion (GPS, HEK-293T) (PSI 1-6); higher = more stable
# Details: c terminus: a fixed tail appended
# 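Also: lentivirally expressed fusions sorted by FACS into six bins by GFP to DsRed ratio, PSI derived from sequencing read proportions per bin multiplied by bin number.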
row,Variant,protein stability index
1,FPKSEQVYLHFLSVSTEDGPEPKD,2.47
2,FPKSEQVYLHFLSVRTEDGPEPKD,3.32
3,FPKSEQVYLHFLSVHTEDGPEPKD,2.4
4,FPKSEQVYLHFLSVCTEDGPEPKD,1.72
5,FPKSEQVYLHFLSVDTEDGPEPKD,3.45
6,FPKSEQVYLHFLSVTTEDGPEPKD,2.1
7,FPKSEQVYLHFLSVVTEDGPEPYD,1.39
8,FPKSEQVYLHFLSVVTEDGPEPMD,2.22
9,FPKSEQVYLHFLSVVTEDGPEPTD,1.69
10,FPKSEQVYLHFLSVVTEDGPEPAD,2.66
11,FPKSEQVYLHFLSVVTEDGPEPND,1.69
12,FPKSEQTYLHFLSVVTEDGPEPKD,2.1
13,FPKSEQQYLHFLSVVTEDGPEPKD,1.88
14,FPKSEQMYLHFLSVVTEDGPEPKD,3.74
15,FPKSEQVYLHFLSVVTEDSPEPKD,2.27
16,FPKSEQVYLHFLSVVTEDFPEPKD,1.54
17,FPKSEQVYLHFLSVVTEDDPEPKD,2.06
18,FPKSEQVYLHFLSVVTEDVPEPKD,1.5
19,FPKSEQVYLHFLSVVTEDTPEPKD,2.34
20,FPKSEQVYLHSLSVVTEDGPEPKD,2.65
21,FPKSEQVYLHCLSVVTEDGPEPKD,1.76
22,FPKSEQVYLHGLSVVTEDGPEPKD,3.61
23,FPKSEQVYLHFLSVVTEPGPEPKD,1.94
24,FPKSEQVYLHFLSVVTEAGPEPKD,1.73
25,FPKSEQVYLHFLSVVTEVGPEPKD,1.23
26,FPKSEQVYLHFLSVVTETGPEPKD,1.76

row,Variant,protein stability index
1,FPKSEQVYLHFLSVVTEYGPEPKD,1.24
2,FPKSEQVYLHFLSVVTESGPEPKD,1.33
3,FPKSEQVYLHFLSVVTEKGPEPKD,1.58
4,FPKSLQVYLHFLSVVTEDGPEPKD,2.47
5,FPKSAQVYLHFLSVVTEDGPEPKD,2.29
6,FPKSTQVYLHFLSVVTEDGPEPKD,1.59
7,FPKSKQVYLHFLSVVTEDGPEPKD,3.34
8,FPKSQQVYLHFLSVVTEDGPEPKD,1.9
9,FPKLEQVYLHFLSVVTEDGPEPKD,1.78
10,FPKREQVYLHFLSVVTEDGPEPKD,1.66
11,FPKIEQVYLHFLSVVTEDGPEPKD,2.58
12,FPKQEQVYLHFLSVVTEDGPEPKD,2.29
13,FPKTEQVYLHFLSVVTEDGPEPKD,2.34
14,FPKPEQVYLHFLSVVTEDGPEPKD,1.95
15,FPKEEQVYLHFLSVVTEDGPEPKD,2.95
16,FPKAEQVYLHFLSVVTEDGPEPKD,1.77
17,FPKNEQVYLHFLSVVTEDGPEPKD,3.06
18,FPKGEQVYLHFLSVVTEDGPEPKD,1.66
19,FPKSEQVFLHFLSVVTEDGPEPKD,1.88
20,FPKSEQVILHFLSVVTEDGPEPKD,2.27
21,FPKSEQVVLHFLSVVTEDGPEPKD,1.98
22,FPKSEQVWLHFLSVVTEDGPEPKD,2.2
23,FPKSEQVHLHFLSVVTEDGPEPKD,2.31
24,FPKSEQVPLHFLSVVTEDGPEPKD,3.14
25,FPKSEQVYLHFLSVVDEDGPEPKD,2.26
26,FPKSEQVYLHFLSVVTEDGCEPKD,1.93

row,Variant,protein stability index
1,FPKSEQVYLHFLSVVTEDGLEPKD,1.71
2,FPKSEQVYLHFLSVVTEDGAEPKD,3.42
3,FPKSEQVYLHFLSVVTEDGFEPKD,1.44
4,FPKSEQVYLHFLSVVTEDGHEPKD,2.28
5,FPKSEQVYLHFLSVVTDDGPEPKD,2.62
6,FPKSEQVYLHFLSVVTWDGPEPKD,4.03
7,FPKSEQVYLHFLSVVTPDGPEPKD,1.99
8,FPKSEQVYLHFLSVVTQDGPEPKD,1.8
9,FPKSEQVYLHFLSVVTADGPEPKD,3.57
10,FPKSEQVYLHFLSVVTLDGPEPKD,1.56
11,FPKSEQVYLHFLSVVTEDGPEPKL,2.94
12,FPKSEQVYLHFLSVVTEDGPEPKG,3.76
13,FPKSEQVYLHFLSVVTEDGPEPKF,1.99
14,FPKSEQVYLHFLSVVTEDGPEPKP,2.16
15,FPKSEQVYLHFLSVVTEDGPEPKI,2.14
16,DPKSEQVYLHFLSVVTEDGPEPKD,4.86
17,PPKSEQVYLHFLSVVTEDGPEPKD,4.28
18,SPKSEQVYLHFLSVVTEDGPEPKD,3.69
19,FPKSEQVYLHFMSVVTEDGPEPKD,3.84
20,FPKSEQVYLHFTSVVTEDGPEPKD,2.58
21,FPKSEQVYLHFVSVVTEDGPEPKD,2.48
22,FPKSEQVYLHFSSVVTEDGPEPKD,2.75
23,FPKSEQVYLHFGSVVTEDGPEPKD,3.24
24,FPKSEQVYLQFLSVVTEDGPEPKD,2.36
25,FPKSEQVYLEFLSVVTEDGPEPKD,3.46
26,FPKSEQVYLIFLSVVTEDGPEPKD,1.26

row,Variant,protein stability index
1,FPKSEQVYLVFLSVVTEDGPEPKD,1.94
2,FPKSEQVYLRFLSVVTEDGPEPKD,4.1
3,FPKSEQVYLSFLSVVTEDGPEPKD,1.95
4,FYKSEQVYLHFLSVVTEDGPEPKD,2.89
5,FIKSEQVYLHFLSVVTEDGPEPKD,2.72
6,FAKSEQVYLHFLSVVTEDGPEPKD,1.91
7,FDKSEQVYLHFLSVVTEDGPEPKD,3.92
8,FPKSEQVYLHFLSGVTEDGPEPKD,2.68
9,FPKSEQVYLHFLSEVTEDGPEPKD,3
10,FPKSEQVYLHFLSLVTEDGPEPKD,2.86
11,FPKSEQVYLHFLSYVTEDGPEPKD,3.58
12,FPKSEQVYLHFLSVVTEDGPNPKD,2.12
13,FPKSEQVYLHFLSVVTEDGPRPKD,1.79
14,FPKSEQVYLHFLSVVTEDGPFPKD,3.2
15,FPKSEQVYLHFLSVVTEDGPSPKD,2.26
16,FPKSEQVYLHFLSVVTEDGPKPKD,2.07
17,FPKSEQVYLHFLSVVTEDGPTPKD,2.06
18,FPKSEQVYLHFLSVVTEDGPHPKD,2.02
19,FPKSEQVYLHFLSVVTEDGPWPKD,1.7
20,FPKSEQVYLHFLSVVTEDGPCPKD,1.91
21,FPKSEQVYLHFLSVVTEDGPQPKD,1.71
22,FPKSENVYLHFLSVVTEDGPEPKD,2.07
23,FPKSEAVYLHFLSVVTEDGPEPKD,2.3
24,FPKSERVYLHFLSVVTEDGPEPKD,1.85
25,FPKSEPVYLHFLSVVTEDGPEPKD,1.92
26,FPKSECVYLHFLSVVTEDGPEPKD,2.19

row,Variant,protein stability index
1,FPKSESVYLHFLSVVTEDGPEPKD,1.41
2,FPKSEQVYEHFLSVVTEDGPEPKD,3.54
3,FPKSEQVYKHFLSVVTEDGPEPKD,2.5
4,FPKSEQVYVHFLSVVTEDGPEPKD,1.71
5,FPKSEQVYIHFLSVVTEDGPEPKD,1.83
6,FPKSEQVYFHFLSVVTEDGPEPKD,1.73
7,FPKSEQVYLHFLRVVTEDGPEPKD,1.98
8,FPKSEQVYLHFLQVVTEDGPEPKD,1.53
9,FPKSEQVYLHFLAVVTEDGPEPKD,1.89
10,FPKSEQVYLHFLSVVTEDGPELKD,2.63
11,FPKSEQVYLHFLSVVTEDGPEEKD,1.94
12,FPKSEQVYLHFLSVVTEDGPETKD,2
13,FPKSEQVYLHFLSVVTEDGPERKD,1.9
14,FPKSEQVYLHFLSVVTEDGPEDKD,3.31
15,FPKSEQVYLHFLSVVTEDGPEKKD,1.67
16,FPKSEQVYLHFLSVVTEDGPEQKD,1.75
17,FPKSEQVYLHFLSVVTEDGPEHKD,2.39
18,FPASEQVYLHFLSVVTEDGPEPKD,2.85
19,FPVSEQVYLHFLSVVTEDGPEPKD,2.33
20,FPESEQVYLHFLSVVTEDGPEPKD,3.36
21,FPQSEQVYLHFLSVVTEDGPEPKD,2.12
22,FPFSEQVYLHFLSVVTEDGPEPKD,2.61
23,FPPSEQVYLHFLSVVTEDGPEPKD,2.46
24,FPSSEQVYLHFLSVVTEDGPEPKD,2.7

# Variants of: B2
# Experiment: as above
# Details: c terminus: a fixed tail appended
row,Variant,protein stability index
1,WIPRPGCRCKNSNTVYCKLESCPS,2.79
2,WINRPGCRCKNSNTVYCKLESCPS,2.4
3,WIYRPGCRCKNSNTVYCKLESCPS,1.59
4,WIKRPGCRCKNSNTVYCKLESCPS,2.13
5,WIVRPGCRCKNSNTVYCKLESCPS,1.72
6,WIRRPGCRCKNSNTVYCKLESCPS,2.44
7,WIWRPGCRCKNSNTVYCKLESCPS,1.73
8,WISRPGCRCKNSNTVYCKLESCPS,3.16
9,WILRPGCRCKNSNTVYCKLESCPS,2.31
10,WIIRPGCRCKNSNTVYCKLESCPS,1.74
11,WIGRPGCRCKNSNTVYCKLESCPS,2.76
12,WIARPGCRCKNSNTVYCKLESCPS,2.75
13,WICRPGCRCKNSNTVYCKLESCPS,1.48
14,WITRPGCRCKNSNTVYCKLESCPS,2.71
15,WIERPGCRCKNSNTVYCKLESCPS,3.78
16,WIMRPGCRCKNSNTVYCKLESCPS,2.52
17,WIDRPGCRCKNSNTVYCKLESCPS,3.37
18,WIFRPGCRCKNSNTVYCKLESCPS,1.87
19,WIQRPGCRCKNSNTVYCKLESCPS,2.5
20,WIHDPGCRCKNSNTVYCKLESCPS,3.73

row,Variant,protein stability index
1,WIHCPGCRCKNSNTVYCKLESCPS,2.77
2,WIHAPGCRCKNSNTVYCKLESCPS,2.51
3,WLHRPGCRCKNSNTVYCKLESCPS,2.34
4,WCHRPGCRCKNSNTVYCKLESCPS,3.23
5,WTHRPGCRCKNSNTVYCKLESCPS,3.13
6,WPHRPGCRCKNSNTVYCKLESCPS,3.62
7,WYHRPGCRCKNSNTVYCKLESCPS,2.23
8,WAHRPGCRCKNSNTVYCKLESCPS,2.68
9,WDHRPGCRCKNSNTVYCKLESCPS,3.9
10,WVHRPGCRCKNSNTVYCKLESCPS,2.76
11,WNHRPGCRCKNSNTVYCKLESCPS,3.22
12,WFHRPGCRCKNSNTVYCKLESCPS,1.61
13,WGHRPGCRCKNSNTVYCKLESCPS,2.73
14,WWHRPGCRCKNSNTVYCKLESCPS,2.12
15,WHHRPGCRCKNSNTVYCKLESCPS,2.77
16,WQHRPGCRCKNSNTVYCKLESCPS,2.82
17,WSHRPGCRCKNSNTVYCKLESCPS,3.27
18,WRHRPGCRCKNSNTVYCKLESCPS,2.46
19,WKHRPGCRCKNSNTVYCKLESCPS,3.39
20,WEHRPGCRCKNSNTVYCKLESCPS,3.89

row,Variant,protein stability index
1,WMHRPGCRCKNSNTVYCKLESCPS,2.4
2,SIHRPGCRCKNSNTVYCKLESCPS,4.09
3,DIHRPGCRCKNSNTVYCKLESCPS,4.38
4,EIHRPGCRCKNSNTVYCKLESCPS,3.75
5,AIHRPGCRCKNSNTVYCKLESCPS,3.52
6,LIHRPGCRCKNSNTVYCKLESCPS,3.54
7,YIHRPGCRCKNSNTVYCKLESCPS,2.13
8,FIHRPGCRCKNSNTVYCKLESCPS,2.04
9,MIHRPGCRCKNSNTVYCKLESCPS,2.88
10,VIHRPGCRCKNSNTVYCKLESCPS,3.03
11,RIHRPGCRCKNSNTVYCKLESCPS,3.79
12,HIHRPGCRCKNSNTVYCKLESCPS,3.72
13,NIHRPGCRCKNSNTVYCKLESCPS,4.04
14,QIHRPGCRCKNSNTVYCKLESCPS,3.23
15,KIHRPGCRCKNSNTVYCKLESCPS,3.97
16,IIHRPGCRCKNSNTVYCKLESCPS,3
17,TIHRPGCRCKNSNTVYCKLESCPS,3.45
18,PIHRPGCRCKNSNTVYCKLESCPS,3.5
19,GIHRPGCRCKNSNTVYCKLESCPS,3.65
20,CIHRPGCRCKNSNTVYCKLESCPS,3.78
